This is an account of results in the DeepSol protein solubility set.

The data set in a line: soluble on expression in E. coli; label from the status in PepcDB or PDB records.
“MIGRLRGIIIEKQPPLVLIEVGGVGYEVHMPMTCFYELPEAGQEAIVFTHFVVREDAQLLYGFNNKQERTLFKELIKTNGVGPKLALAILSGMSAQQFVNAVEREEVGALVKLPGIGKKTAERLIVEMKDRFKGLHGDLFTPAADLVLTSPASPATDDAEQEAVAALVALGYKPQEASRMVSKIARPDASSETLIREALRAAL”: the “soluble on expression in E. coli” value is “soluble”.

Regarding “MFKRVFNLRFISNFSRRPTSSPKLPKLIAITGGTSLGIAFFGKTEENKNLDSGNGQLIDGKPKNFDLIVRNSDELYDNYLIDNCYNILKKFENSNCSELLWRLARVVCEKGKLSKDQNQRKELILEAYGIVKKALDNEPKNGCFGAHKWYAILLDYVGEIEGNKSRIEKSFQVRKHLEKALSIFENDPTTWHILGVWHFSFANMGYATRMVAKAIFATPPASTYQEALHYFLKAEQISPGFYSTNTYYIGEVYEQLGQKAEALDAFKQSFKMPVVTSDDAVIHKKAYEKLKKYGVKDTEVV”, the “soluble on expression in E. coli” value is given as “not soluble”.

For the sequence “SLPNASRVVIVAGEESGDHHAAELVKQLKAVYPDLEISGIGGKHLRAAGVHLISDLTRYAVTGLTEIIPFLKIFRKAFQDIKQHLSTQKPDLLILVDYPAFNLRLAKYAKKKLGLKIIYYISPQIWAWKGKRIHLIKDCIDKMAVIFPFEKTIYENAGVPVSFVGHPLVKKIAAAKDKHSSRTSLGLPLNEPIIALLPGSRHSEIERHIPILVNTAKLLTLDSPKLRFVVPIAGTINPDKVKAYFSNQNLTVTFIQGQAIECMSAADFVIVASGTASLECALLEKPMCIIYKSSFLTYVAAMYFIKVKFLGLCNLLANKMMVPEFLQYDCNAIELSRYISNFHNNPNQPESMINQLAKLKESLSSSQADCSLFDLVVAELPEKNA”, the “soluble on expression in E. coli” value is “not soluble”.

As to “MDQTVLDSAFNSPVDSGIAGTTTGSGSTTHFGVGTNFKVSVRSSSRSTDGTDSTDGANSDNVTGSTGSTPAHHSITNLNMALSQHSIDSATAASSTNPFPHFNQADLLNFHQNSLLPHHMFSQFGRYPQFEQKPDVGVLQQQMQMREAKPYKCTQCVKAFANSSYLSQHMRIHLGIKPFGPCNYCGKKFTQLSHLQQHIRTHTGEKPYKCKFTGCDKAFSQLSNLQSHSRCHQTDKPFKCNSCYKCFTDEQSLLDHIPKHKESKHLKIHICPFCGKSYTQQTYLQKHMTKHADRSKASNFGNDVVPADPFDPSLLSWNPMQGMGDNAHDSSSFNISSLTDQFAANTMIGSQSTNYNPAFQNSAFSQLFNIRNNRYLSEYPTSTKNGERAPGFNMITPLENIQRYNGSSSSATAVVTATGSAVVSSTPSSTSSSSAGSSSSQGGVFNPQSLINNMKNHSY”, the “soluble on expression in E. coli” value is listed as “not soluble”.

Regarding “MQTNLERIKKHIEKLDTFTATPGQGTTRLTYSKEDLDARNYLKQEMAKVGLTVSEDAIGNIYGRLEGESPDLPAVIVGSHFDSVPNGGAFDGPAGVITGLEVASVFHEQQIKPHFPLEIIAMVEEEGSRFGAGLLASRAITGKVTTEMLHEMKDIDGITATDAMAKLGFNANRVHRAIRTKESVKAFIELHIEQGPILENASEDVALVDTVVGLTQIKVTVKGQAGHAGTTPMLDRKDALVSAVEILGQLPELAIQEGGGTVLTVGKLNVYPNGANVIPDKVIFTVDIRAKDEIHVQNTLAKTKEIIQATEKNGITCEIKDMIYQQPTHLSKEIHQALTESADQLGFKYRTMVSGAGHDAMIFASLTEVGLIFVPSHNGISHAPEEWTDYDKLQKGIEVVLKTVKKWTEESANESENKTNSFK”, the “soluble on expression in E. coli” value is recorded as “not soluble”.

For “MSPLPIIEVMPKLLSGITNSPQLILKAAPGAGKSTYFPLQLLQAGGFHGKIIMLEPRRLAARNIARYLAQQLGEEVGQRVGYRVRGENRVSRATQLEIVTEGIMTRMLQNDPELDGVDVLIFDEFHERSIHADTALALALEVQSALREDLKIVVMSATLDQQALQNLLPQASYVESQGRGFPIEIRYQPLRSDEPLVTAMQRQIRHLLQHETGSLLAFLPGAASINQLTEQLSDLASEVEICPLYGQMEFAAQQRAIAPTAAGRRKVVLATNIAETSLTIEGIRIVLDSGLERSARFDLKTGITRLEQVRIAQSSAEQRAGRAGRLEPGICVRLYSEAQLKQQPWVPEPEMLHTDLAPLALELAQWGAQPSDLAWLNLPPSSAFAQAQQLLQRLGLLDARTQITAAGKEAHLLGVEPRIAAMLLSADRLGESALQSALALTVLLEEPERQVIDVQHSLHRWQQGRHPKQKLLIQRAQSLAHKLDTAFSLSSVDSAWLPLVACLAFPDRIAQQRGQQTGQFLLANGHGAWLAVEDRLSAADYLVALDLMRGQTQASQIFSALELDIHALERVLPALISRVEQVDWDEKAGRLSAEAQWRIDQLVLRREKLPEPDKQKMTQALLSYVRRKGLTVLQWSEDASEWLARARCAAEWLPEEAWPALDDETLLARLELWLEPYLAGVTSVKGLQSVSVLQALKHYLGWELSQQLDEWLPTHHLLPTGNHKKIRYQLGMEPTLSVRMQEVFGEQSSPRVAKGTRAVVMELLSPAQRPLQVTRDLASFWAGAYKEVQKEMKGRYPKHVWPDDPANHVATSKTKRQLNA”, the “soluble on expression in E. coli” value was “soluble”.

With “MGPLLVWHRGDLRLHDHPALLEALARGPVVGLVVLDPNNLKTTPRRRAWFLENVRALREAYRARGGALWVLEGLPWEKVPEAARRLKAKAVYALTSHTPYGRYRDGRVREALPVPLHLLPAPHLLPPDLPRAYRVYTPFSRLYRGAAPPLPPPEALPKGPEEGEIPREDPGLPLPEPGEEAALAGLRAFLEAKLPRYAEERDRLDGEGGSRLSPYFALGVLSPRLAAWEAERRGGEGARKWVAELLWRDFSYHLLYHFPWMAERPLDPRFQAFPWQEDEALFQAWYEGKTGVPLVDAAMRELHATGFLSNRARMNAAQFAVKHLLLPWKRCEEAFRHLLLDGDRAVNLQGWQWAGGLGVDAAPYFRVFNPVLQGERHDPEGRWLKRWAPEYPSYAPKDPVVDLEEARRRYLRLARDLARG”, the “soluble on expression in E. coli” value is “soluble”.

“MSLGVEGEMQSFMSDMGVQANVTGPSAYQGQSAGYYSMGSVWSRFPQKNIQPFNLQLPHARAGCGGIDLFAGSFSFINTAELVAMLKATANNALGFAFKLAIDTISPEIGKVMDELAQKVQQMNQMNISSCETAQALVGGLWPKSDTASSVICEAIANSQGAVSDWARARQQCNNGGQREALKSANSDPDMKEQAGMPNNYTWAALGKKYGGFDTQFREFLMTLVGTVIYDPAGNGGKPRVQFIGPADPALISAMLDGTSSTPHKYWSCGGDSAKCMAPSEIDMVIGPNAAIKARVRTLIESMALKVRDPGASLTPAEIQLLGMASVPVYKIITVSAAAEFGISAQEINDLSEIVAVDLVTTMTMRFIDMAVNARSDFNGADADSLREWREGLYETRRNFLGIAARTSQRFDQTFALIQRTQMLEKTLRTQLSPQMSAALRFSRTLGSQVQEGHHHHHH”: the “soluble on expression in E. coli” value is listed as “not soluble”.

In the case of “MKFVAVIRQVPDGESKLRIQGDRVDLSGATMILDQMDEYAVEEAIRLKERHGGEAVVVGFGPERTEEAIRTALAMGMDRGVHVVYEGFADPVAVAEALVEVLKEEAPTLVLTGGQQADWDSQALGGALTEALGVPVVAWTTALELEGDTAKAKHDLDEGAEWVRVRLPAVFTTQQGLNEPRYPTLPGIMKAKKKEIRKVQASLTPKVTLISEEIQEKSRLGKILDGKDPVAAAEELVRLLHEEAKVI”, the “soluble on expression in E. coli” value is on record as “soluble”.

For “MTSVNLSYPIGEYKPRESISKEQKDKWIQVLEEVPAKLKQAVEVMTDSQLDTPYRDGGWTVRQVVHHLADSHMNSYIRFKLSLTEETPAIRPYDEKAWSELKDSKTADPSGSLALLQELHGRWTALLRTLTDQQFKRGFYHPDTKEIITLENALGLYVWHSHHHIAHITELSRRMGWS”, the “soluble on expression in E. coli” value is reported as “soluble”.

Consider “MGSDKIHHHHHHMKPDLSSHLVLGERPDGRTLITARWVLAWRDGGHALIPDGEIVVDRNEVLYAGPRFEGDVARRIDFGTALVSPGLIDLDALSDLDTYLLVHDNQPGWAKGRIWPRSYVESGPYEMYSAEELAFQKRFAFGLLLLNGITTAAPIASLYYRQWAETVAEFEAAADAAGDLGLRVFLSPAYRSGGMILEGPGRIEPAFDEPRGLQGLADAIDFIERNHGRHNGLVNGMLAPDRIETCTLHLLQRTMAAARDLDCRVRIHMAQGNLELETMRRLHGVSAPQWLADHGLMSERLIAPHGTYASPQDLQLYAQHGVSIAHSPLVSARMGSILNSFAACRSLGINIGMATDTAPPDMLMNLLVGLIACRIGEKTSDAVFSKDLFDAATLGGAKALGRRDLGRLAAGAKADIAVFRLDDVHMTPSVDPVTTLVVGGSGKVTQAVFVDGRLSMLDGKVAGIDMIAAREQAQQQYDGLIAKYPDRSWRHPPVGKIFSPSYPVWKIQ”, for which the “soluble on expression in E. coli” value is listed as “not soluble”.

On to “AIAESTKSNDIPILRNVSDSFSDHYGKYLQRCGIFVPKDGDSSGPDAYVVFHNGQTRYVVAFSFTFYHKTEFSKRDIEKEAEQFFQEVISVLNDGSPSSVQLCFQFVVVCTRYDRSVVFSSEEQNIVEDASYLVTEHSAGSTLNESRRSCLQLVVVSQRNLERFLGRENFDILRKIGKASREEFRKDFSVWCKTVFESMSDEYVSPLEAKPFNVTLRVARNIRPRTNEENRMQMEGFQTAMQVEEGNTRGEQRVAASSSLSSSFDWNTFLREYCGLSEEDVAYCLPKVEDIDMDELPAVTKEILRDLGIDKPALRLKIRSSIRSYLANER”, for which the “soluble on expression in E. coli” value is “soluble”.

For the sequence “LTVGDWLDSIRMGRYRDHFAAGGYSSLGMVLRMNAQDVRALGITLMGHQKKILGSIQTMRAQLTSTQG”, the “soluble on expression in E. coli” value is on record as “soluble”.

Regarding “GSESGLRYAYTLVVDGTANTARCFGTGHVDGEAFVGYSNNKTHGIGRWVNASHVEEENKEFVRQCKELQAELDKMQNNSAVIGVKTVQLDVGCTSKIEKHYAYDGNETEDDTATSASERARDCQKKLTEYRKLVLASAVSPQLEVERRSSGREGGMRLRCFARDYYPADLEIRWWKDDGGGGALPQTSKQHHDPLPSGQGLYQKHIDVYVDGGLEHVYSCRVKGIATGLELQIVRWKG”, the “soluble on expression in E. coli” value is on record as “soluble”.

In the case of “GSPGLKGDKGIPGDKGAKGESGLPDVASLRQQVEALQGQVQHLQAAFSQYKKVELFPNGQSVGEKIFKTAGFVKPFTEAQLLCTQAGGQLASPRSAAENAALQQLVVAKNEAAFLSMTDSKTEGKFTYPTGESLVYSNWAPGEPNDDGGSEDCVEIFTNGKWNDRACGEKRLVVCEF”, the “soluble on expression in E. coli” value is given as “soluble”.

As for “MGSDKIHHHHHHMLQGKVSVIVPAYNAARLLERCVRSITGQTYPALEVIVVDDGSKDDTGKIADQLAAEDSRIRVVHKTNGGVSAARNDALKLVEGEWITFVDSDDYLEPDFLRSLLDGEVADLVIGGYHTVGANEIPSANYPTDTAHSPEAIKRALEARLTDMTFLCPWGKLFRTSLVRSLRLIFNTEMKVGEDVVFVWSYLAHCSSLAFKQGQGYDYYTEPGADFKYALDETVSLQTIERILGVLDGLKRNFGMDTEHARCHVLNYYIWLFKLYVNRNYLLRDLARMKNFFYYPLILDYYKTYRRTSKDKLLVYLLLKLRLSGVLYLMIKLYY”, the “soluble on expression in E. coli” value is recorded as “not soluble”.

Regarding “MSLAANTQDVEITIPQGASLYQVSERLYDEGVIRSRLWFRYQGKISQADRNIRPGAYTFSPDTDLEEIFTLLQKGVPEQPVIMTIPEGFTLYEIAQRVESLGFGLAEEFIKATQDYFKSRDYSFDTSELYFEMEGYLYPDTYHLKKNQDMKAIVHSLVSPIDAFFSEEYIKRAEELGLSLHEVLTIASIIEREAYHDEERATVSGVIFNRLGIRMSLQIDATVIYGLGEGKEHRNRVLYADLETPNPFNTYMNTGIPPGPIAAPSKASIHATLYPEDHSYLYYVLGEGGHVFSETYQEHLKHVDAYRRRINEGHHHHHH”, the “soluble on expression in E. coli” value is “not soluble”.

On to “SPLEQRSQHCKPEEGLEARGEALGLVGAQAPATEEQEAASSSSTLVEVTLGEVPAAESPDPPQSPQGASSLPTTMNYPLWSQSYEDSSNQEEEGPSTFPDLESEFQAALSRKVAKLVHFLLLKYRAREPVTKAEMLGSVVGNWQYFFPVIFSKASDSLQLVFGIELMEVDPIGHVYIFATCLGLSYDGLLGDNQIMPKTGFLIIILAIIAKEGDCAPEEKIWEELSVLEVFEGREDSIFGDPKKLLTQYFVQENYLEYRQVPGSDPACYEFLWGPRALIETSYVKVLHHMVKISGGPRISYPLLHEWALREGEE”, for which the “soluble on expression in E. coli” value was “soluble”.
